One experiment has as its system C57BL/6 mice. Kind of experiment: Nociception (analgesia) testing on 54 C hotplate. Type of experiment: in vivo, mouse. As to conditions: for analgesic activity after systemic administration: 54° C. hotplate. The protocol:
Experiments were performed under the guidelines of the Australian code of practice for the care and use of animals for scientific purposes (National Health and Medical Research Council, Australia, 7th Edition). Great care was taken to minimise animal suffering during these experiments and to reduce the number of animals used. […] Food and water was available ad libitum. Mice were given at least 7 days to habituate to housing facilities prior to handling, and handled by the experimenter for 4 days prior to testing. […] The experimenter was blind to all drugs tested. Animals were tested on a 54° C. hotplate, with a maximum cut-off time of 20 seconds to prevent tissue damage. Endpoints were hindpaw lick, hindpaw flutter or jump. […] The percentage of maximal possible effects (% MPE) were calculated as follows: % MPE=(test latency−baseline latency)/(cutoff latency−baseline latency)×100%. The cut-off latency was 20 seconds. Significant differences were assessed with a two-way ANOVA and Tukey's post hoc multiple comparisons test. […] Doses were transformed to the logarithm of μmol/kg. A two-way ANOVA was used to compare data at equimolar doses.

Experiment [1] deals with T1, MOPr (Mus musculus, UniProt P42866). It counts as cell-based. More on the design: expressed in transfected cells. As to conditions: for internalisation signal in GRK2 positive cells: GRK2-YFP and β-arrestin 2-HA overexpressed. The protocol: Endocytosis assay: Receptor internalization was quantified using a ratiometric staining of membrane and internalized receptors. […] Cells were then incubated for an additional 30 min with indicated agonist at 37° C. To unbind the M1 anti-FLAG antibody from the surface receptors, cells were quickly washed three times with ice-cold PBS lacking Mg^2+ and Ca^2+ and supplemented with 0.04% EDTA (pH 7.4).
Only YFP positive cells were analyzed for internalization.
See also FIGS. 11C and 11D.

Experiment [2] deals with T1, MOPr. The experiment is described as follows: GIRK conductance in MOPr expressing AtT20 cells without fractional inactivation of MOPr. It counts as cell-based. More on the design: expressed in transfected cells.
Procedure: The recording electrodes were first front filled with this internal solution and then backfilled with the same solution containing 200 μg/ml amphotericin B (in 0.8% DMSO). […] Liquid junction potential was calculated to be +16 mV and was adjusted before the start of each recording. […] Currents were sampled at 100 Hz, low pass filtered at 50 Hz and recorded on hard disk for later analyses. IGIRK was recorded using a 200 ms voltage step to −120 mV from a holding potential of −60 mV delivered every 2 s. Drugs were perfused directly onto cells using a ValveLink 8.2 pressurized pinch valve perfusion system (AutoMate Scientific, USA).
Experiment [3] has as its target T1, MOPr. Type of experiment: cell-based. More on the design: expressed in transfected cells; host or cells: AtT20 cells, transient co-transfection. The method, then:
Arrestin recruitment: Agonist-induced recruitment of β-arrestin2 to MOPr was examined using a BRET-based approach. AtT20 cells were plated in 10-cm dishes and co-transfected with MOPr C-terminally tagged with Rluc8 (MOPr-RLuc8), β-arrestin2-YFP and GRK2 (1 μg, 4 μg and 2 μg, respectively). 24 h after transfection wells were replated into white opaque 96-well plates (CulturPlate, PerkinElmer) and allowed to adhere overnight. Cells were washed with Hank's Balanced Salt Solution (HBSS) and equilibrated in HBSS for 30 min at 37° C. prior to the experiment. Coelenterazine h was added to a final concentration of 5 μM 10 min before dual fluorescence/luminescence measurement in a LUMIstar Omega plate reader (BMG LabTech). Baseline BRET was measured for 30 sec prior to addition of the indicated ligand. The BRET signal was calculated as the ratio of light emitted at 530 nm by YFP over the light emitted at 430 nm by Renilla luciferase 8 (RLuc8).

Experiment [4] deals with T2, MOPr (Rattus norvegicus, UniProt P33535).
T2 construct: which natively express MOPr but not DOPr or KOPr; from tissue; host or cells: brain slices with locus coeruleus neurons, male Sprague Dawley rats
The experiment is described as follows: Patch-clamp recordings of GIRK currents in rat locus coeruleus (LC) neurons. It counts as cell-based. The protocol:
Briefly, rats were anesthetized with isoflurane and decapitated. The brain was dissected and mounted in a vibratome chamber (Leica biosystem, VT100, Wetzlar, Germany) in order to prepare horizontal brain slices (280 μm). […] Slices were incubated in warm oxygenated ACSF for at least 30 min before recording. Slices were transferred to the recording chamber while warm ACSF (34° C.) was superfused at a rate of ˜2 mL/min. Whole-cell voltage-clamp recordings were acquired from LC neurons with Multiclamp 700B amplifier (Molecular Devices, CA, USA) at holding potential of −60 mV. […] Continuous current recordings were collected in chart mode at 500 Hz and filtered at 20-50 Hz using Axograph X (Axograph Scientific, Sydney, Australia). Series resistance monitored throughout the experiments and remained <15 MΩ; otherwise the data were discarded. Outward current was measured as the difference between baseline current and peak current of drug application.

Experiment [5] has as its target human µ-opioid receptor (hMOPr), human recombinant MOPr expressed in HEK-293 cells (human) (UniProt P35372). Kind of experiment: cell-based or functional assay.
A further experiment addresses T3, mouse MOPr (mMOPr) (Mus musculus, UniProt P42866).
T3 construct: expressed in transfected cells
It counts as cell-based.

Experiment [6] has as its target T1, MOPr. Kind of experiment: MOPr internalisation (endocytosis assay) in AtT20 cells. More on the design: expressed in transfected cells. As to conditions: 30 min agonist; met-enkephalin defined as 100%. Type of experiment: cell-based. The protocol: Imaging parameters including laser intensity, photomultiplier tube (PMT) voltage and offset remained constant for each experiment. Mean fluorescence intensity was measured using ImageJ software to calculate mean gray value of an area defined […] a single cell. Each experiment was normalized to the mean of untreated cells as 0% and the mean of cells treated with saturating concentrations of Met-enk (30 μM) as 100%.
MOPr internalisation was assessed immunocytochemically after 30 minutes of agonist treatment (FIGS. 8, 9). […] Endocytosis assay: Receptor internalization was quantified using a ratiometric staining of membrane and internalized receptors. […] Cells were then incubated for an additional 30 min with indicated agonist at 37° C. To unbind the M1 anti-FLAG antibody from the surface receptors, cells were quickly washed three times with ice-cold PBS lacking Mg^2+ and Ca^2+ and supplemented with 0.04% EDTA (pH 7.4).

Experiment [7] has as its target FLAG tagged mouse MOPr (mMOPr) stably expressed in AtT20 cells (mouse) (UniProt P42866). The experiment is described as follows: cell-based or functional assay.
Experiment [8] concerns the target MOPr C-terminally tagged with Rluc8 (MOPr-RLuc8), transfected in AtT20 cells. Kind of experiment: cell-based or functional assay.
Experiment [9] concerns the target MOPr natively expressed by rat locus coeruleus (LC) neurons (rat, UniProt P33535 1-398). Kind of experiment: cell-based or functional assay.
Experiment [10] concerns the target T4, human µ-opioid receptor (hMOPr), human recombinant MOPr expressed in HEK-293 cells (human, UniProt P35372 1-400). Kind of experiment: cell-based or functional assay.
Experiment [11] deals with T4, human µ-opioid receptor (hMOPr), human …. Kind of experiment: competition with [3H]DAMGO (0.5 nM), membranes with human recombinant MOPr (HEK-293), filtration and scintillation counting. The method, then: (§1) The specific ligand binding to the receptors is defined as the difference between the total binding and the nonspecific binding determined in the presence of an excess of an unlabelled opioid ligand (naloxone, 10 μM). The results are expressed as a percent of control specific binding ((measured specific binding/control specific binding)×100) obtained in the presence of unlabelled peptides of interest. The IC₅₀ values (concentration causing a half-maximal inhibition of control specific binding) and Hill coefficients (nH) were determined by non-linear regression analysis of the competition curves generated with mean replicate values using Hill equation curve fitting (Y=D+[(A−D)/(1+(C/C₅₀nH)], where Y=specific binding, D=minimum specific binding, A=maximum specific binding, C=compound concentration, C₅₀=IC₅₀, and nH=slope factor).

The target is the same in experiment [12]. Kind of experiment: competition with [3H]DAMGO at hMOPr. The protocol: as §1

“Also recorded” adds a separate entry of the source. Non-standard residues stand in square brackets, D forms with d. No end group written: not given here. *: point of attachment. β‑Lac = OC[C@H]1O[C@@H](O[C@H]2[C@H](O)[C@@H](O)[C@H](*)O[C@@H]2CO)[C@H](O)[C@@H](O)[C@H]1O; Dmt = Cc1cc(O)cc(C)c1C[C@H](N)C(=O)O

Sequence of FLAG tagged mouse MOPr (mMOPr) stably expressed in AtT20 cells (mouse) (P42866 whole entry): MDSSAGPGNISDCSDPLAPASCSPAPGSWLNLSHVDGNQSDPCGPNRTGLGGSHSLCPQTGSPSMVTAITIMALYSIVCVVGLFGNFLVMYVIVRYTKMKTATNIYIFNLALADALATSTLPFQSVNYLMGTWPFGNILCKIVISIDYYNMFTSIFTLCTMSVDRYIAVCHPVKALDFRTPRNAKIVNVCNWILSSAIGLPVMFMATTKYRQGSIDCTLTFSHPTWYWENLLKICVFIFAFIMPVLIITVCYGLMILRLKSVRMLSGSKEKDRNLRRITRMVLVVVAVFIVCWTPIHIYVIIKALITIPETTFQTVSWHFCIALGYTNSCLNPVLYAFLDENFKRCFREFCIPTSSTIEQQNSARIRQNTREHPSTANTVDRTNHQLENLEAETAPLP
T3 sequence (P42866 whole entry): as above
T1 sequence (P42866 whole entry): as above
T4 sequence (P35372 whole entry): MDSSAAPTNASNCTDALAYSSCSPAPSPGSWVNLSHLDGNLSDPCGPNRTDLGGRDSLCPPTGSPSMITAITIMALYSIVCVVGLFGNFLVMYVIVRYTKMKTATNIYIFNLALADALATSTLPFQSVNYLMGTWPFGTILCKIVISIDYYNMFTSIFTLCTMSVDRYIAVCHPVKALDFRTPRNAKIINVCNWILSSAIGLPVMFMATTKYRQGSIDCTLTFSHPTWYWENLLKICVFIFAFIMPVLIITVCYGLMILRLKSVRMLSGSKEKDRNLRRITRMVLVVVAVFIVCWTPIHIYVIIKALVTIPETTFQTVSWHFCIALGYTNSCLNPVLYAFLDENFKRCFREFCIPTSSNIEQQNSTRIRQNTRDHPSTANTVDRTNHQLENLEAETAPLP
Sequence of MOPr natively expressed by rat locus coeruleus (LC) neurons (P33535 whole entry): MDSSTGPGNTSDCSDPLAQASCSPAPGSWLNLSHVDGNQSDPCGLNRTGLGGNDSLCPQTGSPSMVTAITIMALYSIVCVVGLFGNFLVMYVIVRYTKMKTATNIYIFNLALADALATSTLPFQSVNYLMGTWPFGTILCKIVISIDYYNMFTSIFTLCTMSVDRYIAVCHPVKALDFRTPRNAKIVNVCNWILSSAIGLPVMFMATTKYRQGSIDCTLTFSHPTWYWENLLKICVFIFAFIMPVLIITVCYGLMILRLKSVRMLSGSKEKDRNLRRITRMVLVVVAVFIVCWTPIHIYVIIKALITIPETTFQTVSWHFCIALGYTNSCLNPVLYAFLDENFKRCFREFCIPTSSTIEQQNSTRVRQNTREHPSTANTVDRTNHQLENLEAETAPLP
Sequence of human µ-opioid receptor (hMOPr), human recombinant MOPr expressed in HEK-293 cells (human) (P35372 whole entry): as the sequence (P35372 whole entry) above
T2 sequence (P33535 whole entry): as the sequence (P33535 whole entry) above

“2,6-dimethyl-L-tyrosine-D-Val-L-Val-D-Phe-L-Ser(β-Lac)-NH2 ([Dmt][dV]V[dF]S(β‑Lac)-NH2; N-terminus assumed; SMILES Cc1cc(O)cc(C)c1C[C@H](N)C(=O)N[C@@H](C(=O)N[C@H](C(=O)N[C@H](Cc1ccccc1)C(=O)N[C@@H](CO[C@@H]1O[C@H](CO)[C@@H](O[C@@H]2O[C@H](CO)[C@H](O)[C@H](O)[C@H]2O)[C@H](O)[C@H]1O)C(N)=O)C(C)C)C(C)C) [peptide 3g]”: in the experiment on C57BL/6 mice (s.c., listed as Bilactorphin), the “analgesic activity after systemic administration” value is “dose-dependent analgesia; also recorded: equipotent with morphine”. For the same molecule, the “analgesic activity after systemic administration” value in the experiment with C57BL/6 mice (s.c., listed as bilactorphin) is recorded as “potent analgesic”. Also, in the experiment with C57BL/6 mice (hotplate, i.v), the “peak effect after i.v” value was found to be 88.9±11.8 % MPE. Moreover, the “activity after oral administration” value in the experiment with C57BL/6 mice (hotplate, oral gavage) is “active”. Further, the “ED50, hotplate, systemic administration s.c.” value in the experiment with C57BL/6 mice (s.c.) is 34 µmol/kg. Moreover, in the experiment with MOPr [1] (30 μM, after GRK2 overexpression), the “internalization compared to bilorphin” value is recorded as “modest”. Further, in the experiment with MOPr [2], the “agonist action in AtT20 cells” value is on record as “potent partial opioid agonist” and the “potency compared with bilorphin in AtT20 cells” value is listed as “small loss of potency”. Moreover, the “β-arrestin recruitment compared to bilorphin” value with MOPr [3] is “modest”.
In the case of `Cc1cc(O)cc(C)c1C[C@H](N)C(=O)N[C@@H](C(=O)N[C@H](C(=O)N[C@H](Cc1ccccc1)C(N)=O)C(C)C)C(C)C` [peptide 3c, 2,6-dimethyl-L-tyrosine-D-Val-L-Val-D-Phe-NH2], the “agonist action on GIRK current in LC neurons” value at MOPr [4] (compared with morphine) is “agonist with potency greater than morphine”. Besides, the “peak effect after intrathecal injection” value with C57BL/6 mice (hotplate, 5 nmol/mouse intrathecal) was determined as 41±9 % MPE. In addition, the “nociception in the hotplate test, intravenous” value with C57BL/6 mice (i.v. 50 mg/kg, versus vehicle) is given as “failed to inhibit nociception”. For the same molecule, in the experiment with C57BL/6 mice (s.c. 100 mg/kg, versus vehicle), the “nociception in the hotplate test, subcutaneous” value was “failed to inhibit nociception”. In addition, on MOPr [1], the “internalisation signal in GRK2 positive cells” value is recorded as “clear internalisation signals”. For the same molecule, the “agonist action in AtT20 cells” value at MOPr [2] is on record as “potent partial opioid agonist”.
Regarding H-FVVF-NH2 (peptide), in experiment [5], the % inhibition of forskolin-stimulate cAMP formation in hMOPr HEK cells (10 um) came out at 19%.
Same read-out and setting: with “DAMGO ([D-Ala^2, N-MePhe^4, Gly^5-ol]-enkephalin) (peptide)” the figure was 94%.
Take `COc1ccsc1CNCC[C@@]1(c2ccccn2)CCOC2(CCCC2)C1` [oliceridine]: the “GGIRK maximal response / intrinsic efficacy” value at mouse MOPr (mMOPr) is on record as “significantly less efficaciously than either morphine or bilorphin”. On mouse MOPr (mMOPr) (AtT20 mMOPr cells after β-CNA, relative to somatostatin), the “GIRK (80% knockdown) Emax” value amounted to 0.33 ± 0.01. Further, the “GIRK (80% knockdown) log(tau/KA)” value on mouse MOPr (mMOPr) (operational model fit) came to 7.2 ± 0.08. Moreover, on MOPr [6], the “Internalisation Emax” value was “No activity”. For the same molecule, the “internalisation signal in GRK2 positive cells” value at MOPr [1] was “clear internalisation signals”.
In experiment [7], endomorphin-2 (peptide) returned a GIRK (80% knockdown): Emax of 0.64, a GIRK (80% knockdown): log(EC50) of -6.9, a GIRK (80% knockdown): log(tau/KA) of 7.5 and an Internalisation of MOPr: Emax of 94%. In experiment [7], this molecule had an Internalisation of MOPr: log(EC50) of -6.4, an Internalisation of MOPr: log(tau/KA) of 6.2, a Phosphorylation (Ser375 of MOPr): Emax of 98% and a Phosphorylation (Ser375 of MOPr): log(EC50) of -7.2. The molecule also gave a Phosphorylation (Ser375 of MOPr): log(tau/KA) in experiment [7] of 7.2. Further, in [8], the β-arrestin 2 recruitment (BRET): Emax was found to be 100, the β-arrestin 2 recruitment (BRET): log(EC50) was -7 and the β-arrestin 2 recruitment (BRET): log(tau/KA) came out at 7.
As to `CC(=O)N[C@@H](Cc1ccc(O)cc1)C(=O)N[C@@H](C(=O)N[C@H](C(=O)N[C@H](Cc1ccccc1)C(N)=O)C(C)C)C(C)C` [3d, Aε-YvVf-NH2], on MOPr [4] (10-30 μM), the “activity in LC neurons” value was “inactive”.
With Ac-Y[dV]V[dF]-NH2 [Ac-YvVf-NH2], the “Agonist potency in LC neurons EC50” value in [9] is over 10 µM.

B1: H-FvGy-NH2 (L-Phe-D-Val-Gly-D-Tyr-NH2) (peptide)
peptide: H-F[dV]G[dY]-NH2
SMILES: CC(C)[C@@H](NC(=O)[C@@H](N)Cc1ccccc1)C(=O)NCC(=O)N[C@H](Cc1ccc(O)cc1)C(N)=O
notes: also called 2d; peptide 2d
As a reminder, the Ki is the dissociation constant of the complex between target and ligand, obtained from inhibition or displacement. For the molecule B1, in experiment [10], the “% inhibition of forskolin-stimulate cAMP formation in hMOPr HEK cells (10 um)” value was 31%. For the same molecule, in experiment [11], the Ki stood at 1600 nM.
For the molecule H-YVVF-NH2 [H-YVVF-NH2], the “Agonist potency in LC neurons EC50” value in [9] was over 10 µM.
The same measure, in the same setting: next, H-YVVF-OH [H-YVVF-OH]: over 10 µM.
Consider FVVF (D-Val at 2; D-Phe at 4; C-terminal amide, also called 1e; peptide 1e) [H-FvVf-NH2 (L-Phe-D-Val-L-Val-D-Phe-NH2)], for which the “% inhibition of forskolin-stimulate cAMP formation in hMOPr HEK cells (10 um)” value in experiment [10] was 47%. The “fold improvement of affinity over Bilaid A (1a)” value in experiment [12] stood at 4 fold. In [11], the Ki was determined as 750 nM.
As to YVVF (D-Val at 2; D-Phe at 4; C-terminal amide, also called 3b; peptide 3b) [H-YvVf-NH2 (L-Tyr-D-Val-L-Val-D-Phe-NH2)], the “fold increase of affinity over Bilaid C (3a)” value in experiment [12] was 2 fold. Moreover, in [11], the Ki was found to be 93 nM.

Source of the values: patent US20210355166A1, “[…] METHODS OF USE THEREOF” (priority 2018, published 2021).
